Experiment [1] deals with T1, HaloTag-fused talin1 (HT-talin1), endogenous knock-in in mouse primary T cells (mouse (endogenous knock-in in mouse T …, UniProt P26039 1-2541, HaloTag labelled with HT SaraFluor 650T Ligand)). As to the kind of experiment: naive T cells, on MAdCAM1.
In experiment [2] the target is T1, HaloTag-fused talin1 (HT-talin1), …. Nature of the experiment: activated T cells, on MAdCAM1.

B1: α4/β7 integrin, endogenous on mouse primary T cells (receptor)
chain 1: YNLDPENALLYQGPSGTLFGYSVVLHSHGSKRWLIVGAPTASWLSNASVVNPGAIYRCGIRKNPNQTCEQLQSGSPSGEPCGKTCLEERDNQWLGVTLSRQPGENGSIVTCGHRWKNIFYMKSDNKLPTGICYVMPSDLRTELSKRMAPCYKDYTRKFGENFASCQAGISSFYTQDLIVMGAPGSSYWTGTVFVYNITTNQYKAFVDRQNQVKFGSYLGYSVGAGHFRSPHTTEVVGGAPQHEQIGKAYIFSIDENELNIVYEMKGKKLGSYFGASVCAVDLNADGFSDLLVGAPMQSTIREEGRVFVYINSGMGAVMVEMERVLVGSDKYAARFGESIANLGDIDNDGFEDIAIGAPQEDDLRGAVYIYNGRVDGISSTYSQRIEGQQISKSLRMFGQSISGQIDADNNGYVDVAVGAFQSDSAVLLRTRPVVIVEASLSHPESVNRTKFDCTENGLPSVCMHLTLCFSYKGKEVPGYIVLFYNVSLDVHRKAESPSRFYFFSNGTSDVITGSIRVSSSGEKCRTHQAFMRKDVRDILTPIHVEATYHLGHHVITKRNTEEFPPLQPILQQKKEKDVIRKMINFARFCAYENCSADLQVSAKVGFLKPYENKTYLAVGSMKTIMLNVSLFNAGDDAYETTLNVQLPTGLYFIKILDLEEKQINCEVTESSGIVKLACSLGYIYVDRLSRIDISFLLDVSSLSRAHEDLSISVHASCENEGELDQVRDNRVTLTIPLRYEVMLTVHGLVNPTSFVYGSSEENEPETCMAEKLNLTFHVINTGISMAPNVSVKIMVPNSFLPQDDKLFNVLDVQTTTGQCHFKHYGRECTFAQQKGIAGTLTDIVKFLSKTDKRLLYCMKADQHCLDFLCNFGKMESGKEASVHIQLEGRPSILEMDETSSLKFEIKATAFPEPHPKVIELNKDENVAHVFLEGLHHQRPKRHFTIIIITISLLLGLIVLLLISCVMWKAGFFKRQYKSILQEENRRDSWSYVNSKSNDD
chain 2: ELDTKITSSGEAAEWEDPDLSLQGSCQPVPSCQKCILSHPSCAWCKQLNFTASGEAEARRCARREELLARGCPAQELEEPRGRQEVLQDKPLSQGDRGEGATQLAPQRIRVTLRPGEPQKFRVRFLRAAGYPVDLYYLMDLSYSMKDDLERVRQLGHALLVRLQEVTHSVRIGFGSFVDKTVLPFVSTVPSKLHHPCPSRLERCQPPFSFHHVLSLTGDAQAFEREVGRQNVSGNLDSPEGGFDAILQAALCQEQIGWRNVSRLLVFTSDDTFHTAGDGKLGGIFMPSDGRCHLDSNGVYTNSAEFDYPSVGQVAQALTAANIQPIFAVTGATLPVYQELRQLIPKSAVGELSEDSSNVVQLIMDAYDSLSSTVTLEHSPLPPGVSISFESHCKGPEKTEGEAGDRGQCNDVRVNQTVDFWVTLQATHCLPEAHVLRLWALGFSEELTVELHTVCDCNCGDAQPHAPYCSDGQGDLQCGICSCAPGRLGQLCECSEADLSSPDLESGCRAPNGTGPLCSGKGRCQCGRCSCSGQSSGRLCECDDASCERHEGILCGGFGHCQCGVCHCHANHTGRACECSKSVDSCVSPEGGLCSGHGYCKCNRCQCLDGYYGALCDQCLGCKSPCEQYRDCAECGAFGTGPLAANCSVVCADVNVTLTLAPNLDDGWCKERTIDNQLFFFLVEHAASGIVLRVRPQEKGVDHTRAIILGCTGGIVAVGLGLVLAYRLSVEIYDRREYRRFEKEQQQLNWKQDNNPLYKSAITTTVNPRFQGTNGRSPSLSLTREAD
A word on the koff: it is the first-order rate constant of dissociation. With B1, the koff in experiment [1] amounted to 0.576 s⁻¹; in experiment [2], 0.61 s⁻¹.
